Assay [1] addresses T1, Fusion protein of extracellular domain of human TIGIT and His-tag (human TIGIT ECD-his) (human).
T1 chain: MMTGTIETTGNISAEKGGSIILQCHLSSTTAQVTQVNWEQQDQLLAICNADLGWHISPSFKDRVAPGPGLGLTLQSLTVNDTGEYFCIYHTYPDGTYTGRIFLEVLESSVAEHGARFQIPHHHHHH
As to the kind of experiment: BIAcore; reference itself. (SPR reads the build-up and loss of mass on a sensor chip optically.)

The target in assay [2] is T2, Fusion protein of extracellular domain of human TIGIT and human IgG1 Fc fragment (human TIGIT ECD-hFc) (human).
T2 construct: The entry includes the signal peptide (limits not recoverable) and the human IgG1 Fc
As to the kind of experiment: blocking of TIGIT ECD-hFc binding to CHO-K1 CD155 cells. A digest of the protocol: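 The inhibition curves from which IC50 was calculated were generated by cell-based ELISA. Fixed CHO-K1 CD155 cells, blocked with 5% skim milk-PBS, were incubated at 37° C for 1.5-2 h with antibodies that had been premixed for 0.5 h with human TIGIT ECD-hFc at a working concentration of 30 ng/mL. Detection of bound TIGIT used HRP secondary antibody at 1:5000 for 1 h at 37° C, followed by TMB and reading as OD450 nm.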

Assay [3] concerns the target T3, Fusion protein of extracellular domain of cynomolgus monkey TIGIT and mouse IgG2a Fc fragment (cynomolgus … (cynomolgus monkey)).
T3 construct: The entry includes the signal peptide (limits not recoverable) and the mouse IgG2a Fc
The assay is described as follows: ELISA, cynomolgus monkey TIGIT ECD-mFc. A digest of the protocol:
(§1)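 Plates blocked with 5% skim milk-PBS at 37° C for 2-4 h. Test antibodies applied as a 12-point 3-fold series from 13 nM for 1.5-2 h at 37° C. Read-out: HRP secondary (1:5000, 1 h, 37° C), TMB colour for 7-10 min at room temperature, acid stop, absorbance at OD450 nm.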
A general note: In an ELISA, binding on a coated surface is turned into a signal by an enzyme label.

Assay [4] deals with T4, Fusion protein of extracellular domain of human TIGIT and mouse IgG2a Fc fragment (human TIGIT ECD-mFc) (human).
T4 construct: The entry includes the signal peptide (limits not recoverable) and the mouse IgG2a Fc
T4 chain: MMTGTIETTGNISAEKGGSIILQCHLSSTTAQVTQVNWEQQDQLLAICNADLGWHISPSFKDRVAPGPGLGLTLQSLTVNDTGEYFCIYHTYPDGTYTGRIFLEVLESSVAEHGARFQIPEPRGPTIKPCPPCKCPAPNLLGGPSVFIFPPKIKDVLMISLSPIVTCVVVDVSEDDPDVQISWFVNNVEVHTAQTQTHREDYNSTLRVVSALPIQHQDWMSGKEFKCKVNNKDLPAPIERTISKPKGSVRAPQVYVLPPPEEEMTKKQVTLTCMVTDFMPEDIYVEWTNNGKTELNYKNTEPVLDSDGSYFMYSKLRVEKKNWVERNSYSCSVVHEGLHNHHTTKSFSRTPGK
As to the kind of experiment: ELISA, human TIGIT ECD-mFc. A digest of the protocol: as §1

Assay [5] deals with T1, Fusion protein of extracellular domain …. As to the kind of experiment: BIAcore.
In assay [6] the target is T5, Full-length human TIGIT on CHO-K1 cells (CHO-K1 human TIGIT) (human, UniProt Q495A1 22-244).
T5 construct: NCBI XP_024309156.1; the entry includes the signal peptide (limits not recoverable); The strain (high, medium, low) is named under assay; also called high expression strain 1D2; medium expression strain 2D10
T5 sequence: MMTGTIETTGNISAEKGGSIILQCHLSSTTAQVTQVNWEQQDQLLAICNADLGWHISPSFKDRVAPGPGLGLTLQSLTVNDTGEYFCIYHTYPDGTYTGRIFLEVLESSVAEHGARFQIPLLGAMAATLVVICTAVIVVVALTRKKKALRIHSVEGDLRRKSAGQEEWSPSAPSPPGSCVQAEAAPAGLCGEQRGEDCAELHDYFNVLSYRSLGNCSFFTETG
As to the kind of experiment: cell binding, CHO-K1 human TIGIT high expression strain. A digest of the protocol:
(§2)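 Binding was measured by flow cytometry after a 60-minute, 4° C incubation of the antibodies with 2×10⁵ CHO-K1 cells displaying full-length human or cynomolgus monkey TIGIT. Antibody titration: 12 points, threefold serial dilution from 80 nM, in 1% BSA-PBS.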

For assay [7], the target named is T6, Full-length cynomolgus monkey TIGIT on CHO-K1 cells (CHO-K1 cynomolgus monkey TIGIT) (cynomolgus monkey).
T6 construct: NCBI XP_015300911.1
As to the kind of experiment: cell binding, CHO-K1 cynomolgus monkey TIGIT. A digest of the protocol:
as §2

Assay [8] deals with T1, Fusion protein of extracellular domain …. The assay is described as follows: BIAcore; KD ratio, by the numbers to TIGIT-005-H2L1 of r33.

T6 sequence (chain, as listed by the source limits assumed): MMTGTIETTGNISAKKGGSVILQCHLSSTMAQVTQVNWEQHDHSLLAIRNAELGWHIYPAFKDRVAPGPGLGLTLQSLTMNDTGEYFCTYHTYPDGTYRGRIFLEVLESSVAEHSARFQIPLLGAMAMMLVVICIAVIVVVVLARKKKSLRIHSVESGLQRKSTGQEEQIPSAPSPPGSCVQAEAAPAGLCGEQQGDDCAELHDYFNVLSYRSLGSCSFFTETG
T3 sequence (chain, as listed by the source limits assumed): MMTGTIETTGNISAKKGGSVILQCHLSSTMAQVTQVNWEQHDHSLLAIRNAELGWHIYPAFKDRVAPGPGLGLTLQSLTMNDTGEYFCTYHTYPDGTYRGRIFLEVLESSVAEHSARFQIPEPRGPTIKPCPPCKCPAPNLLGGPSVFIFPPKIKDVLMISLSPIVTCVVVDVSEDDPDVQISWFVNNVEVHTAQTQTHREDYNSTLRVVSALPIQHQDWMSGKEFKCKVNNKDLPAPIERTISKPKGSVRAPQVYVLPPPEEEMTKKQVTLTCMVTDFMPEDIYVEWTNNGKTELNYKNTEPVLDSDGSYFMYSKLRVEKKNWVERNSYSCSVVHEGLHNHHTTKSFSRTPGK
T2 sequence (chain, as listed by the source limits assumed): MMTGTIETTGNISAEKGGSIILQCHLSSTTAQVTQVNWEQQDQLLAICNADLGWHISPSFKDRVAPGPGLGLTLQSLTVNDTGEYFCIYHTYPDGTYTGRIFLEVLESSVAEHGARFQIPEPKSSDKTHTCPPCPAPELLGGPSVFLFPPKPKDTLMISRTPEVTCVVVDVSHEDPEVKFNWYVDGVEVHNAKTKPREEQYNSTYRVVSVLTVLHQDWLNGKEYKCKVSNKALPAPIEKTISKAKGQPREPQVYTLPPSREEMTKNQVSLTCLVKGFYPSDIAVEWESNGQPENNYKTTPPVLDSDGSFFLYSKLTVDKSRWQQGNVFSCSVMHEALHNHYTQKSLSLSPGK

B1: TIGIT-CHI-002 (antibody, V domains shown)
VH: EVQLQESGPGLAKPSQTLSLACSVTGYSITSDSWNWIRKFPGNKLEYMGYISYSGNTYYNPSLKSRISITRDTSKNQFYLQLNSVTTEDTATYYCARLDFSNYGGAVDYWGQGTSVTVSS
VL: DIVMTQSHTFMSTSVGDRVSITCKASQNVRTAVAWYQQKPGQSPKLMIYSASYRYTGVPDRFTGSGSGTDFTFTISSVQAEDLAVYYCQQYYTTPWTFGGGAKLEIQ
notes: Human-mouse chimeric antibody
As to B1, the “Fold change vs chimeric antibodies (KD)” value in assay [1] was determined as 1 fold. For the same molecule, the IC50 (commonly the concentration at which inhibition is half-maximal) in assay [2] worked out at 0.564 nM. For the same molecule, the EC50 – broadly, the concentration needed to bring the measured effect to its halfway point – in assay [3] was 0.02 nM; in assay [4], 0.0161 nM; in assay [6], 0.0218 nM; in assay [7], 0.0372 nM. Besides, the Kd (usually a measure of binding affinity in units of concentration) in assay [5] turned out to be 0.0421 nM. For the same molecule, the koff – broadly, the first-order rate constant of dissociation – in assay [5] was found to be 0.0003 s⁻¹. Further, in assay [5], the kon – broadly, a measure of how fast the partners come together – was found to be 7.13e+06 M⁻¹ s⁻¹.

B2: TIGIT-CHI-006 (antibody, V domains shown)
VH: EVQLQESGPGLAKPSQTPSLTCSVTGYSMTSDYWNWIRKFPGNKLEYMGYISYSGRTYYNPSLKSRISITRDTSKNQFYLQLNSVTTEDTATYYCARGDYSNYGGAMYDWGQGTSVTVSS
VL: DIVMTQSHKFMSTSVGDRVSITCRASQGVSTTIAWYQQKPGQSPKLLIYSASYRYTGVPDRFTGSGSGTDFTFTISGVQAEDLAVYYCQQYYSSPFTFGGGTKLEIK
notes: Human-mouse chimeric antibody
For the molecule B2, the “Fold change vs chimeric antibodies (KD)” value in assay [1] is 1 fold. For the same molecule, the IC50 in assay [2] amounted to 0.579 nM. Also, the EC50 worked out at 0.0258 nM in assay [3], 0.0152 nM in assay [4], 0.0299 nM in assay [6] and 0.15 nM in assay [7]. This molecule gave a Kd in assay [5] of 0.0774 nM. Further, the koff in assay [5] amounted to 0.000162 s⁻¹. Also, the kon in assay [5] stood at 2.09e+06 M⁻¹ s⁻¹.

B3: TIGIT-005-H2L1a (antibody, V domains shown)
VH: EVQLVQSGAEVKKPGASVKVSCKASGYAFTNYLIEWVRQAPGQRLEWMGVINPGSGGTNYKEKFKGRVTITADKSSSTAYMELSSLRSEDTAVYYCARGEYFFFDYWGQGTTVTVSS
VL: DIVMTQSPDSLAVSLGERATINCKASQHVSQGVAWYQHKPGQSPKLLIYSASYRYTGVPDRFSGSGSGTDFTLTISSLQAEDVAVYYCQQHYNTPHTFGGGTKVEIK
notes: Humanized anti-TIGIT antibody with NG-site mutation in VL
Molecule B3 displayed an IC50 in assay [2] of 0.717 nM. For the same molecule, the EC50 in assay [3] amounted to 0.0357 nM; in assay [4], 0.0289 nM; in assay [6] it was 0.0129 nM; in assay [7], 0.0561 nM. This molecule also had a Kd in assay [5] of 3.71 nM. In assay [5], the koff amounted to 0.0105 s⁻¹. In assay [5], this molecule gave an association rate constant (kon) of 2.83e+06 M⁻¹ s⁻¹. The “Fold change vs chimeric antibodies (KD)” value in assay [8] is 50 fold.

B4: TIGIT-005-H2L1b (antibody, V domains shown)
VH: EVQLVQSGAEVKKPGASVKVSCKASGYAFTNYLIEWVRQAPGQRLEWMGVINPGSGGTNYKEKFKGRVTITADKSSSTAYMELSSLRSEDTAVYYCARGEYFFFDYWGQGTTVTVSS
VL: DIVMTQSPDSLAVSLGERATINCKASQHVSTGVAWYQHKPGQSPKLLIYSASYRYTGVPDRFSGSGSGTDFTLTISSLQAEDVAVYYCQQHYNTPHTFGGGTKVEIK
notes: as for B3
Turning to B4, in assay [2], the IC50 worked out at 0.358 nM. Besides, the EC50 was 0.032 nM in assay [3], 0.0238 nM in assay [4], 0.0279 nM in assay [6] and 0.0368 nM in assay [7]. In assay [5], this molecule displayed a Kd of 0.734 nM. The molecule further showed a koff in assay [5] of 0.00248 s⁻¹. Moreover, in assay [5], the kon was found to be 3.38e+06 M⁻¹ s⁻¹. Besides, the “Fold change vs chimeric antibodies (KD)” value in assay [8] came out at 9.89 fold.

B5: TIGIT-005-H2L1c (antibody, V domains shown)
VH: EVQLVQSGAEVKKPGASVKVSCKASGYAFTNYLIEWVRQAPGQRLEWMGVINPGSGGTNYKEKFKGRVTITADKSSSTAYMELSSLRSEDTAVYYCARGEYFFFDYWGQGTTVTVSS
VL: DIVMTQSPDSLAVSLGERATINCKASQHVSDGVAWYQHKPGQSPKLLIYSASYRYTGVPDRFSGSGSGTDFTLTISSLQAEDVAVYYCQQHYNTPHTFGGGTKVEIK
notes: as for B3
Take B5: the IC50 in assay [2] was 0.347 nM. The EC50 came out at 0.0296 nM in assay [3], 0.0268 nM in assay [4], 0.0246 nM in assay [6] and 0.0673 nM in assay [7]. In addition, in assay [5], the Kd is 0.184 nM. The same molecule had an off-rate (koff) in assay [5] of 0.000459 s⁻¹. The kon in assay [5] worked out at 2.49e+06 M⁻¹ s⁻¹. The “Fold change vs chimeric antibodies (KD)” value in assay [8] amounted to 2.48 fold.

B6: TIGIT-CHI-070 (antibody, V domains shown)
VH: QVQLQQPGTELVKPGASVKLSCRASGYTFTNYYMHWVKQRPGRGLEWIGRIDPDSGGSKYNEKFKSKATLTVDKLSSTAYMQLSSLTSEDSAVYYCAREGHYGFYSDYWGQGTTLTVSS
VL: DIQMTQSPASLSASVGETVTITCRVSENIYSYLAWYQQKQGKSPQLLVYNAKTLAEGVPSRFSGSGSGTQFSLKINSLQPEDFGNYYCQHHYGNPLTFGAGTKLDLK
notes: Human-mouse chimeric antibody
On to B6, for which the “Fold change vs chimeric antibodies (KD)” value in assay [1] came to 1 fold. The IC50 in assay [2] came out at 0.637 nM. Moreover, the EC50 in assay [3] was found to be 0.0184 nM; in assay [4], 0.0159 nM; in assay [6] it was 0.033 nM; in assay [7], 0.0741 nM. This molecule also registered a dissociation constant Kd in assay [5] of 0.098 nM. The molecule further came in with a koff in assay [5] of 0.000145 s⁻¹. For the same molecule, the kon in assay [5] was determined as 1.48e+06 M⁻¹ s⁻¹.

B7: TIGIT-CHI-005 (antibody, V domains shown)
VH: QVQLQQSGAELVRPGTSVKVSCKASGYAFTNYLIEWVKQRPGQGLEWIGVINPGSGGTNYKEKFKGKATLTADKSSSTAYMQLSSLTSEDSAVYFCARGEYFFFDYWGQGTTLTVSS
VL: DIVMTQSHKFMSTSVGDRVSITCKASQHVSNGVAWYQHKPGQSPKLLIYSASYRYTGVPDRFTGTGSGTDFTFTISSVQAEDLAVYYCQQHYNTPHTFGGGTKLEIK
notes: Human-mouse chimeric antibody
In the case of B7, the “Fold change vs chimeric antibodies (KD)” value in assay [1] was found to be 1 fold. Also, in assay [2], the IC50 was 0.36 nM. Further, the EC50 in assay [3] was 0.0165 nM; in assay [4] it was 0.019 nM; in assay [6], 0.026 nM; in assay [7], 0.0265 nM. The molecule also returned a Kd in assay [5] of 0.0276 nM. Moreover, in assay [5], the off-rate (koff) turned out to be 0.000113 s⁻¹. Moreover, the kon in assay [5] was 4.76e+06 M⁻¹ s⁻¹.

Source of the values: patent publication US20240343803A1 (SHANDONG SIMCERE BIOPHARMACEUTICAL, published 2024).
